{"source": "paper PMC3737229", "about": "“Novel Dicarboxylate Selectivity in an Insect Glutamate Transporter Homolog” (PLoS ONE, 2013)", "key": {"[1]": {"target": "T1, CuqDCT (Culex quinquefasciatus, UniProt B0W0K5)", "T1 construct": "gene 6031434; synthetic gene, full length, in-frame C-terminal GFP (EGFP), pCDNA3.1; cRNA expressed in Xenopus laevis oocytes", "T1 sequence (B0W0K5 1-483)": "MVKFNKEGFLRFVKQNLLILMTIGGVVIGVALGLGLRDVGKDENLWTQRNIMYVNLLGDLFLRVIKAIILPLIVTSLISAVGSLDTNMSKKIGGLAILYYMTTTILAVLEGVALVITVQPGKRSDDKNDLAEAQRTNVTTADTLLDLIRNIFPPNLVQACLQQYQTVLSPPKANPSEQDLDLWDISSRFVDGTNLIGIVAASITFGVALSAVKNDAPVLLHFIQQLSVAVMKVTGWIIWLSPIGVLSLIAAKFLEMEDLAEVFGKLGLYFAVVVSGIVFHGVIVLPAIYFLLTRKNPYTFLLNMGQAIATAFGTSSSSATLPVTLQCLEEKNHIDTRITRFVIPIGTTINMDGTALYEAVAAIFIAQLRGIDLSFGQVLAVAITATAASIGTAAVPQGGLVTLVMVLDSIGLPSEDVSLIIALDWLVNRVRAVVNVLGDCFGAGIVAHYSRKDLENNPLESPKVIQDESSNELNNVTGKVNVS", "test": "two-electrode voltage clamp, transport currents in oocytes", "assay_type": "cell-based", "details": "-60 mV; 96 mM NaCl Ringer, pH 7.5"}, "[2]": {"test_system": "T2, N[C@@H](CCC(=O)O)C(=O)O", "T2 construct": "synthetic gene, full length, in-frame C-terminal GFP (EGFP), pCDNA3.1; cRNA expressed in Xenopus laevis oocytes", "test": "two-electrode voltage clamp, transport currents in oocytes", "assay_type": "cell-based, Culex quinquefasciatus", "details": "-60 mV, 96 mM NaCl Ringer, pH 7.5"}, "[3]": {"test_system": "T3, O=C(O)C[C@H](O)C(=O)O", "T3 construct": "synthetic gene, full length, in-frame C-terminal GFP (EGFP), pCDNA3.1; cRNA expressed in Xenopus laevis oocytes", "test": "two-electrode voltage clamp, transport currents in oocytes", "assay_type": "cell-based, Culex quinquefasciatus", "details": "-60 mV, 96 mM NaCl Ringer, pH 7.5"}, "[4]": {"substrate": "O=C(O)C[C@H](O)C(=O)O", "test": "cells, lysate or membranes", "details": "-60 mV, 96 mM NaCl Ringer, pH 7.5"}, "[5]": {"substrate": "N[C@@H](CCC(=O)O)C(=O)O", "test": "two-electrode voltage clamp, transport currents in oocytes", "assay_type": "cell-based, Culex quinquefasciatus", "details": "-60 mV, 96 mM NaCl Ringer, pH 7.5"}, "[6]": {"substrate": "O=C(O)CCC(=O)C(=O)O", "test": "two-electrode voltage clamp, transport currents in oocytes", "assay_type": "cell-based, Culex quinquefasciatus", "details": "-60 mV, 96 mM NaCl Ringer, pH 7.5"}}, "data": [{"molecule": "O=C(O)CCC(=O)O", "note": "[succinate]", "values": [{"measurement": "Km", "setting": "[1]", "value": "50.8 ± 2.3", "unit": "µM"}]}, {"molecule": "CuqDCT (Culex quinquefasciatus; N428D)", "values": [{"measurement": "Km", "setting": "[2]", "value": "13.8 ± 1.3", "unit": "µM"}, {"measurement": "Km", "setting": "[3]", "value": "8800 ± 1500", "unit": "µM"}]}, {"molecule": "CuqDCT (Culex quinquefasciatus) (protein, synthetic gene, full length, in-frame C-terminal GFP (EGFP), pCDNA3.1; cRNA expressed in Xenopus laevis oocytes) MVKFNKEGFLRFVKQNLLILMTIGGVVIGVALGLGLRDVGKDENLWTQRNIMYVNLLGDLFLRVIKAIILPLIVTSLISAVGSLDTNMSKKIGGLAILYYMTTTILAVLEGVALVITVQPGKRSDDKNDLAEAQRTNVTTADTLLDLIRNIFPPNLVQACLQQYQTVLSPPKANPSEQDLDLWDISSRFVDGTNLIGIVAASITFGVALSAVKNDAPVLLHFIQQLSVAVMKVTGWIIWLSPIGVLSLIAAKFLEMEDLAEVFGKLGLYFAVVVSGIVFHGVIVLPAIYFLLTRKNPYTFLLNMGQAIATAFGTSSSSATLPVTLQCLEEKNHIDTRITRFVIPIGTTINMDGTALYEAVAAIFIAQLRGIDLSFGQVLAVAITATAASIGTAAVPQGGLVTLVMVLDSIGLPSEDVSLIIALDWLVNRVRAVVNVLGDCFGAGIVAHYSRKDLENNPLESPKVIQDESSNELNNVTGKVNVS", "values": [{"measurement": "Km", "setting": "[4]", "value": "10.5 ± 0.5", "unit": "µM"}, {"measurement": "Km", "setting": "[5]", "value": "1085 ± 96", "unit": "µM"}, {"measurement": "Km", "setting": "[6]", "value": "20.2 ± 1.2", "unit": "µM"}]}]}
